This passage reports Km, kcat and kcat/Km results from paper PMC10923667, “Cloning and expression heterologous alanine dehydrogenase genes: Investigation of reductive amination potential of L-alanine dehydrogenases for green synthesis of alanine derivatives” (Heliyon, 2024).

One series concerns T1, CC(=O)C(=O)O.
T1 construct: full-length, codon-optimised, pET-28a(+) NdeI/XhoI, N- and C-terminal 6xHis tags, E. coli BL21 (DE3), Ni-NTA purified
Put plainly: purified protein. In kind it is biochemical, Candidatus Bathyarchaeota archaeon. The conditions noted are these: reductive amination, 0.5 mM NADH, 0.5 M NH4Cl, pH 10.5, 25 °C.

The next series concerns T2, CCC(=O)C(=O)O.
T2 construct: full-length, codon-optimised, pET-28a(+) NdeI/XhoI, N- and C-terminal 6xHis tags, E. coli BL21 (DE3), Ni-NTA purified
Put plainly: purified protein. In kind it is biochemical, Candidatus Bathyarchaeota archaeon. Conditions: reductive amination, 0.5 mM NADH, 0.5 M NH4Cl, pH 10.5, 25 °C.

The subject of a further series is T3, CCCC(=O)C(=O)O.
T3 construct: full-length, codon-optimised, pET-28a(+) NdeI/XhoI, N- and C-terminal 6xHis tags, E. coli BL21 (DE3), Ni-NTA purified
The series can be described thus: purified protein. In kind it is biochemical, Candidatus Bathyarchaeota archaeon. The conditions noted are these: reductive amination, 0.5 mM NADH, 0.5 M NH4Cl, pH 10.5, 25 °C.

Another series addresses T4, AfAlaDH (Archaeoglobus fulgidus, UniProt O28608).
T4 construct: gene ala; full-length, codon-optimised, pET-28a(+) NdeI/XhoI, N- and C-terminal 6xHis tags, E. coli BL21 (DE3), Ni-NTA purified
T4 sequence (O28608 1-322): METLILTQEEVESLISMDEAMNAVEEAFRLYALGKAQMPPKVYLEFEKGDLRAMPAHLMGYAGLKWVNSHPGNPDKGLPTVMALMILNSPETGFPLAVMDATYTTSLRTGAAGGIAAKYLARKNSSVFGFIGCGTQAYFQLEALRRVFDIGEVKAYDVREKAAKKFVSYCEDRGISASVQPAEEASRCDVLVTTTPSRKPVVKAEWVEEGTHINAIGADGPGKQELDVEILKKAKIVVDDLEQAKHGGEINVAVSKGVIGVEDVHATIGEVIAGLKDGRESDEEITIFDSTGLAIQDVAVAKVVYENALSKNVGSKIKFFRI
The series can be described thus: NADH consumption at […] nm, Michaelis-Menten fit. In kind it is biochemical. Conditions: reductive amination; 0.5 mM NADH, 0.5 M NH4Cl, pH 9.5, 25 °C; read-out: Pyruvate / KM.

Substrate in series [1]: CCCC(=O)C(=O)O
The series can be described thus: purified protein. In kind it is biochemical, Melghiribacillus thermohalophilus. Conditions: reductive amination, 0.5 mM NADH, 0.5 M NH4Cl, pH 9.5, 25 °C.

Substrate in series [2]: CC(=O)C(=O)O
The series can be described thus: purified protein. In kind it is biochemical, Melghiribacillus thermohalophilus. Conditions: reductive amination, 0.5 mM NADH, 0.5 M NH4Cl, pH 9.5, 25 °C.

Substrate in series [3]: CCC(=O)C(=O)O
The series can be described thus: purified protein. In kind it is biochemical, Melghiribacillus thermohalophilus. The conditions noted are these: reductive amination, 0.5 mM NADH, 0.5 M NH4Cl, pH 9.5, 25 °C.

Substrate in series [4]: CCCCC(=O)C(=O)O
The series can be described thus: purified protein. In kind it is biochemical, Thermus thermophilus. Conditions: reductive amination, 0.5 mM NADH, 0.5 M NH4Cl, pH 8.5, 25 °C.

Substrate in series [5]: CCCC(=O)C(=O)O
Put plainly: purified protein. Conditions: reductive amination, 0.5 mM NADH, 0.5 M NH4Cl, pH 8.5, 25 °C. In kind it is biochemical, Thermus thermophilus.

Substrate in series [6]: CC(=O)C(=O)O
Put plainly: purified protein. The conditions noted are these: reductive amination, 0.5 mM NADH, 0.5 M NH4Cl, pH 8.5, 25 °C. In kind it is biochemical, Thermus thermophilus.

Substrate in series [7]: CCC(=O)C(=O)O
The series can be described thus: purified protein. In kind it is biochemical, Thermus thermophilus. Conditions: reductive amination, 0.5 mM NADH, 0.5 M NH4Cl, pH 8.5, 25 °C.

Substrate in series [8]: CCCC(=O)C(=O)O
Put plainly: purified protein. Conditions: reductive amination, 0.5 mM NADH, 0.5 M NH4Cl, pH 10.5, 25 °C. In kind it is biochemical, Ammoniphilus sp. CFH 90114.

Substrate in series [9]: CC(=O)C(=O)O
Put plainly: purified protein. Conditions: reductive amination, 0.5 mM NADH, 0.5 M NH4Cl, pH 10.5, 25 °C. In kind it is biochemical, Ammoniphilus sp. CFH 90114.

Substrate in series [10]: CCC(=O)C(=O)O
Put plainly: purified protein. In kind it is biochemical, Ammoniphilus sp. CFH 90114. The conditions noted are these: reductive amination, 0.5 mM NADH, 0.5 M NH4Cl, pH 10.5, 25 °C.

Substrate in series [11]: CCCC(=O)C(=O)O
The series can be described thus: purified protein. In kind it is biochemical, Archaeoglobus fulgidus. Conditions: reductive amination, 0.5 mM NADH, 0.5 M NH4Cl, pH 9.5, 25 °C.

Substrate in series [12]: CCC(=O)C(=O)O
The series can be described thus: purified protein. In kind it is biochemical, Archaeoglobus fulgidus. The conditions noted are these: reductive amination, 0.5 mM NADH, 0.5 M NH4Cl, pH 9.5, 25 °C.

One may read the kcat as the number of substrate molecules converted per active site and unit of time at saturation. Usually kcat/Km stands for the second-order rate constant that governs catalysis at low substrate concentration. “CbAlaDH (Candidatus Bathyarchaeota archaeon)”: in the series with CC(=O)C(=O)O, the Km was 0.4 ± 0.0 mM, the kcat is 0.5 ± 0.1 s⁻¹ and the kcat/Km came out at 1300 ± 100 M⁻¹ s⁻¹. For the same molecule, in the series on CCC(=O)C(=O)O, the Km was determined as 2.2 ± 1.0 mM, the kcat turned out to be 0.7 ± 0.2 s⁻¹ and the kcat/Km was 300 ± 200 M⁻¹ s⁻¹. Moreover, in the series with CCCC(=O)C(=O)O, the Km stood at 0.8 ± 0.0 mM, the kcat was 0.17 ± 0.1 s⁻¹ and the kcat/Km was found to be 210 ± 100 M⁻¹ s⁻¹.
Take `CC(=O)C(=O)O` [pyruvate]: the Km on AfAlaDH turned out to be 200 ± 100 µM.

B1: MetAlaDH (Melghiribacillus thermohalophilus) (protein)
chain: MKIGVPKEIKNNENRVALTPAGVMTLKKAGHEVFIETGAGLGSGFTDEQYTEAGAQIVTTAKEAWSQEMVMKVKEPLPEEYDYFYEGLILFTYLHLAAEPELTKALIEKKVVGIAYETVQLDNGSLPLLTPMSEVAGRMATQIGAQFLEKPHGGKGILLGGIPGVRRGKVTIIGGGVVGTNAAKIAVGLGADVTIVDLNPDRLRELDDIFGSSINTLMSNSLNIAEAVKESDLVIGAVLIPGAKAPKLVTEDMVKEMKKGSVIVDVAIDQGGIVETSDRITTHDNPTYEKHGVVHYAVANMPGAVPRTSTIGLTNVTVPYAVQLANKGYKQACLDHAALKKGINTLNGYVTYQAVAEAHGLEYENVDLLLK
notes: full-length, codon-optimised, pET-28a(+) NdeI/XhoI, N- and C-terminal 6xHis tags, E. coli BL21 (DE3), Ni-NTA purified
For B1, in the series “purified protein [1]”, the Km came out at 1.9 ± 0.0 mM, the kcat stood at 0.7 s⁻¹ and the specificity constant (kcat/Km) was found to be 400 M⁻¹ s⁻¹. Moreover, in “purified protein [2]”, the Km turned out to be 1.3 ± 0.4 mM, the kcat worked out at 140 ± 19.7 s⁻¹ and the kcat/Km amounted to 108000 ± 12000 M⁻¹ s⁻¹. In addition, in “purified protein [3]”, the Km stood at 3.8 ± 1.2 mM, the kcat came out at 3.3 s⁻¹ and the kcat/Km was found to be 800 M⁻¹ s⁻¹.

B2: TtAlaDH (Thermus thermophilus HB8) (protein)
chain: MVIGVPKEIKTLENRVALTPGGVESLVRRGHTVLVERGAGEGSGLSDAEYARAGAELVGREEAWGAEMVVKVKEPLPEEYGFLREGLILFTYLHLAADRGLTEAMLRSGVTGIAYETVQLPDGTLPLLVPMSEVAGRMAPQVGAQFLEKPKGGRGVLLGGVPGVAPASVVILGGGTVGTNAAKIALGMGAQVTILDVNHKRLQYLDDVFGGRVITLTATEANIKKSVQHADLLIGAVLVPGAKAPKLVTRDMLSLMKEGAVIVDVAVDQGGCVETIRPTTHAEPTYVVDGVVHYGVANMPGAVPRTSTFALTNQTLPYVLKLAEKGLDALLEDAALLKGLNTHKGRLTHPGVAEAFGLPYTPPEEALRG
notes: as for B1
Consider B2, for which the Km in “purified protein [4]” is on record as 0.4 mM; in the series “purified protein [5]” it was 3.3 ± 1.1 mM; in “purified protein [6]” it was 0.63 ± 0.2 mM; in the series “purified protein [7]”, 0.4 ± 0.1 mM. Moreover, the kcat in the series “purified protein [5]” came to 1.2 s⁻¹; in “purified protein [6]”, 87 ± 5.1 s⁻¹; in the series “purified protein [7]”, 1.1 s⁻¹. Besides, the results for the kcat/Km in “purified protein [5]”, in “purified protein [6]” and in “purified protein [7]” were 400 M⁻¹ s⁻¹, 138000 ± 15700 M⁻¹ s⁻¹ and 3000 ± 700 M⁻¹ s⁻¹, respectively.

B3: AcfhAlaDH (Ammoniphilus sp. CFH 90114) (protein)
chain: MIIGVPKEIKNNENRVGLTPAGVTAFKNNGHDVWVETNAGMGSGFTDEDYTAAGAKIVDSASVVWSAEMVVKVKEPLPEEYTYFREGLILYTYLHLAPEPELTKALVEKKVIAIAYETIQADNGSLPLLTPMSEVAGRMSIQIGAQFLEKSKGGKGVLLGGVPGVAPGEVVIVGGGIVGTNAAKMALGLGASVTLLDISADRLRQLDDMFQGRLKTLMSNSYNIAEAVKKADLVVGAVLIPGARAPRLVTEEMVKTMQPGSVIVDVAIDQGGSIETIDRITTHDNPTYVKHGVLHYAVANMPGAVARTSTIALTNVTVPYGVQIANKGWKQAALDNKALAKGINVVDGKVTYKAVAEAHGYTPVAVETVLTGQNVGV
notes: as for B1
Regarding B3, in “purified protein [8]”, the Km is 5.2 ± 0.8 mM, the kcat is 1 s⁻¹ and the kcat/Km was 200 M⁻¹ s⁻¹. In “purified protein [9]”, the Km is listed as 0.7 ± 0.2 mM, the catalytic constant (kcat) stood at 112 ± 6.6 s⁻¹ and the kcat/Km turned out to be 148000 ± 13500 M⁻¹ s⁻¹. In the series “purified protein [10]”, the Km came to 1.3 ± 0.4 mM, the kcat came out at 5.4 ± 0.5 s⁻¹ and the kcat/Km amounted to 4000 ± 1400 M⁻¹ s⁻¹.

B4: AfAlaDH (Archaeoglobus fulgidus DSM 4304) (protein)
chain: METLILTQEEVESLISMDEAMNAVEEAFRLYALGKAQMPPKVYLEFEKGDLRAMPAHLMGYAGLKWVNSHPGNPDKGLPTVMALMILNSPETGFPLAVMDATYTTSLRTGAAGGIAAKYLARKNSSVFGFIGCGTQAYFQLEALRRVFDIGEVKAYDVREKAAKKFVSYCEDRGISASVQPAEEASRCDVLVTTTPSRKPVVKAEWVEEGTHINAIGADGPGKQELDVEILKKAKIVVDDLEQAKHGGEINVAVSKGVIGVEDVHATIGEVIAGLKDGRESDEEITIFDSTGLAIQDVAVAKVVYENALSKNVGSKIKFFRI
notes: as for B1
Regarding B4, in the series “purified protein [11]”, the Km came to 0.3 ± 0.0 mM, the kcat is 0.9 ± 0.2 s⁻¹ and the kcat/Km is 2700 ± 300 M⁻¹ s⁻¹. In addition, in the series “purified protein [12]”, the Km turned out to be 0.2 ± 0.0 mM, the kcat stood at 7.5 ± 0.1 s⁻¹ and the kcat/Km amounted to 34000 ± 100 M⁻¹ s⁻¹.
